One may read the Kd as a measure of binding affinity in units of concentration. Read a high Kd as a looser complex. The term koff denotes the first-order rate constant of dissociation. A low value points to a long-lived complex. As usually defined, the kon is a measure of how fast the partners come together. A high value points to faster complex formation.

In patent publication US20190202907A1 (180 THERAPEUTICS, published 2019) one finds Kd, koff and kon data, which are given here for 11 molecules.

Assay [1] has as its target cyno ST2L (cyno). Kind of assay: affinity table; method not stated.
Assay [2] concerns the target T1, human ST2L (human, UniProt Q01638 19-328, limits assumed).
T1 construct: also called IL-1R4; IL-33Ra
T1 sequence (looked up): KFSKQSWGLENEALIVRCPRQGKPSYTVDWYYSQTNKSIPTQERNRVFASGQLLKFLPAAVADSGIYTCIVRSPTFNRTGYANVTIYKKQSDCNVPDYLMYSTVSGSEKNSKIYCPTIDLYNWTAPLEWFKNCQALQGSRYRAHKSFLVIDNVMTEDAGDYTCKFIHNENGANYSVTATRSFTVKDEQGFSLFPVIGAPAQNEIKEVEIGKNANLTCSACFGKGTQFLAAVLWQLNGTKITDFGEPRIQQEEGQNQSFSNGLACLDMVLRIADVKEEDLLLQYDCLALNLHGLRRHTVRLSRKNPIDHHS
Kind of assay: affinity table; method not stated.

B1: STLM226 (antibody, from another filing, V domains shown)
VH: EVQLVQSGAEVKKPGATVKISCKVSAFNIKDDYMHWVQQAPGKGLEWMGRIDPAIGNTEYAEKFQGRVTITADTSTDTAYMELSSLRSEDTAVYYCATGDFYAMAYWGQGTLVTVSS
VL: DIQMTQSPSSLSASVGDRVTITCITNTDIDDVIHWYQQKPGKAPKLLIYEGNTLRPGVPSRFSGSGSGTDFTLTISSLQPEDFATYYCLQSDNLLTFGQGTKLEIK
B1: in assay [1], the dissociation constant Kd turned out to be 301 pM, the koff stood at 0.0301 s⁻¹ and the on-rate constant (kon) came out at 1e+08 M⁻¹ s⁻¹. In assay [2], this molecule gave a Kd of 90 pM, a koff of 0.00193 s⁻¹ and a kon of 2.16e+07 M⁻¹ s⁻¹.

B2: STLM227 (antibody, from another filing, V domains shown)
VH: EVQLVQSGAEVKKPGATVKISCKVSAFNIKDDYMHWVQQAPGKGLEWMGRIDPAIGNTEYAEKFQGRVTITADTSTDTAYMELSSLRSEDTAVYYCATGDFYAMAYWGQGTLVTVSS
VL: DIQLTQSPSFLSASVGDRVTITCITNTDIDDVIHWYQQKPGKAPKLLIYEGNTLRPGVPSRFSGSGSGTEFTLTISSLQPEDFATYYCLQSDNMLTFGQGTKLEIK
For the molecule B2, in assay [1], the equilibrium dissociation constant (Kd) stood at 294 pM, the dissociation rate constant (koff) stood at 0.0294 s⁻¹ and the kon was determined as 1e+08 M⁻¹ s⁻¹. In addition, in assay [2], the dissociation constant (Kd) was determined as 64 pM, the off-rate constant (koff) turned out to be 0.0017 s⁻¹ and the on-rate constant (kon) amounted to 2.66e+07 M⁻¹ s⁻¹.

B3: STLM103 (antibody, from another filing, V domains shown)
VH: EVQLLESGGGLVQPGGSLRLSCAASGFTFSFYDMFWVRQAPGKGLEWVSSIRGEGGRTDYADSVKGRFTISRDNSKNTLYLQMNSLRAEDTAVYYCARDPWSTEGSFFVLDYWGQGTLVTVSS
VL: EIVLTQSPATLSLSPGERATLSCRASQSVDDDLAWYQQKPGQAPRLLIYDASNRATGIPARFSGSGSGTDFTLTISSLEPEDFAVYYCQQYIGAPITFGQGTKVEIK
In the case of B3, in assay [1], the Kd came to 31 pM, the off-rate constant (koff) came to 0.000202 s⁻¹ and the kon amounted to 6.42e+06 M⁻¹ s⁻¹. In assay [2], this molecule came in with an equilibrium dissociation constant (Kd) of 41 pM, a koff of 0.000163 s⁻¹ and an association rate constant (kon) of 3.97e+06 M⁻¹ s⁻¹.

B4: STLM108 (antibody, from another filing, V domains shown)
VH: EVQLLESGGGLVQPGGSLRLSCAASGFTFSIYDMIWVRQAPGKGLEWVSTIKGEGGGTYYADSVKGRFTISRDNSKNTLYLQMNSLRAEDTAVYYCARDPWSTEGSFFVLDYWGQGTLVTVSS
VL: EIVLTQSPATLSLSPGERATLSCRASQSVDDDLAWYQQKPGQAPRLLIYDASNRATGIPARFSGSGSGTDFTLTISSLEPEDFAVYYCQQYIGAPITFGQGTKVEIK
Take B4: in assay [1], the Kd was determined as 29 pM, the dissociation rate constant (koff) amounted to 0.000598 s⁻¹ and the association rate constant (kon) is 2.05e+07 M⁻¹ s⁻¹. In assay [2], the dissociation constant (Kd) stood at 97 pM, the koff turned out to be 0.000222 s⁻¹ and the kon is 2.29e+06 M⁻¹ s⁻¹.

B5: STLM217 (antibody, from another filing, V domains shown)
VH: EVQLLESGGGLVQPGGSLRLSCAASGFTFSVYDMFWVRQAPGKGLEWVSDIKGEGGETSYADSVKGRFTISRDNSKNTLYLQMNSLRAEDTAVYYCARDPWSTEGSFFVLDYWGQGTLVTVSS
VL: EIVLTQSPATLSLSPGERATLSCRASQSVDDDLAWYQQKPGQAPRLLIYDASNRATGIPARFSGSGSGTDFTLTISSLEPEDFAVYYCQQYIGAPITFGQGTKVEIK
In assay [1], B5 showed a Kd of 4 pM, a koff of 0.000138 s⁻¹ and a kon of 3.81e+07 M⁻¹ s⁻¹. In assay [2], this molecule came in with a Kd of 17 pM, a dissociation rate constant (koff) of 0.000126 s⁻¹ and a kon of 7.27e+06 M⁻¹ s⁻¹.

B6: STLM218 (antibody, from another filing, V domains shown)
VH: EVQLLESGGGLVQPGGSLRLSCAASGFTFSVDSMFWVRQAPGKGLEWVSSIEGNGGATYYADSVKGRFTISRDNSKNTLYLQMNSLRAEDTAVYYCARDPWSTEGSFFVLDYWGQGTLVTVSS
VL: EIVLTQSPATLSLSPGERATLSCRASQSVDDDLAWYQQKPGQAPRLLIYDASNRATGIPARFSGSGSGTDFTLTISSLEPEDFAVYYCQQYIGAPITFGQGTKVEIK
In assay [1], B6 came in with a Kd of 18 pM, a koff of 0.000265 s⁻¹ and a kon of 1.45e+07 M⁻¹ s⁻¹. In assay [2], the dissociation constant (Kd) worked out at 23 pM, the koff is 0.000224 s⁻¹ and the on-rate (kon) was determined as 9.89e+06 M⁻¹ s⁻¹.

B7: STLM107 (antibody, from another filing, V domains shown)
VH: EVQLLESGGGLVQPGGSLRLSCAASGFTFSDYAMFWVRQAPGKGLEWVSAIEGEGGETNYADSVKGRFTISRDNSKNTLYLQMNSLRAEDTAVYYCARDPWSTEGSFFVLDYWGQGTLVTVSS
VL: EIVLTQSPATLSLSPGERATLSCRASQSVDDDLAWYQQKPGQAPRLLIYDASNRATGIPARFSGSGSGTDFTLTISSLEPEDFAVYYCQQYIGAPITFGQGTKVEIK
On to B7, for which, in assay [1], the dissociation constant Kd was 7 pM, the koff was 0.00055 s⁻¹ and the kon turned out to be 1e+08 M⁻¹ s⁻¹. In assay [2], the Kd came out at 12 pM, the koff stood at 0.000341 s⁻¹ and the kon amounted to 2.9e+07 M⁻¹ s⁻¹.

B8: STLM219 (antibody, from another filing, V domains shown)
VH: EVQLLESGGGLVQPGGSLRLSCAASGFTFSGYDMFWVRQAPGKGLEWVSDIGGEGGSTNYADSVKGRFTISRDNSKNTLYLQMNSLRAEDTAVYYCARDPWSTEGSFFVLDYWGQGTLVTVSS
VL: EIVLTQSPATLSLSPGERATLSCRASQSVDDDLAWYQQKPGQAPRLLIYDASNRATGIPARFSGSGSGTDFTLTISSLEPEDFAVYYCQQYIGAPITFGQGTKVEIK
In assay [1], B8 registered a Kd of 22 pM, a koff of 0.00023 s⁻¹ and a kon of 1.07e+07 M⁻¹ s⁻¹. In assay [2], this molecule came in with a Kd of 27 pM, a koff of 0.000201 s⁻¹ and a kon of 7.54e+06 M⁻¹ s⁻¹.

B9: STLM222 (antibody, from another filing, V domains shown)
VH: EVQLLESGGGLVQPGGSLRLSCAASGFTFSIYSMFWVRQAPGKGLEWVSDIGGEGGGTSYADSVKGRFTISRDNSKNTLYLQMNSLRAEDTAVYYCARDPWSTEGSFFVLDYWGQGTLVTVSS
VL: EIVLTQSPATLSLSPGERATLSCRASQSVDDDLAWYQQKPGQAPRLLIYDASNRATGIPARFSGSGSGTDFTLTISSLEPEDFAVYYCQQYIGAPITFGQGTKVEIK
With B9, in assay [1], the Kd worked out at 29 pM, the koff was 0.000345 s⁻¹ and the association rate constant (kon) was determined as 1.18e+07 M⁻¹ s⁻¹. In assay [2], this molecule displayed a dissociation constant (Kd) of 37 pM, a koff of 0.000301 s⁻¹ and an on-rate constant (kon) of 8.22e+06 M⁻¹ s⁻¹.

B10: STLM221 (antibody, from another filing, V domains shown)
VH: EVQLLESGGGLVQPGGSLRLSCAASGFTFSIYDMFWVRQAPGKGLEWVSYIRGEGGDTNYADSVKGRFTISRDNSKNTLYLQMNSLRAEDTAVYYCARDPWSTEGSFFVLDYWGQGTLVTVSS
VL: EIVLTQSPATLSLSPGERATLSCRASQSVDDDLAWYQQKPGQAPRLLIYDASNRATGIPARFSGSGSGTDFTLTISSLEPEDFAVYYCQQYIGAPITFGQGTKVEIK
Consider B10, for which, in assay [1], the dissociation constant (Kd) worked out at 22 pM, the koff was 0.00013 s⁻¹ and the on-rate (kon) came to 6.04e+06 M⁻¹ s⁻¹. Besides, in assay [2], the Kd amounted to 35 pM, the off-rate (koff) worked out at 9.61e-05 s⁻¹ and the on-rate (kon) came out at 2.73e+06 M⁻¹ s⁻¹.

B11: STLM220 (antibody, from another filing, V domains shown)
VH: EVQLLESGGGLVQPGGSLRLSCAASGFTFSFYDMFWVRQAPGKGLEWVSDIRGEGGGTAYADSVKGRFTISRDNSKNTLYLQMNSLRAEDTAVYYCARDPWSTEGSFFVLDYWGQGTLVTVSS
VL: EIVLTQSPATLSLSPGERATLSCRASQSVDDDLAWYQQKPGQAPRLLIYDASNRATGIPARFSGSGSGTDFTLTISSLEPEDFAVYYCQQYIGAPITFGQGTKVEIK
Regarding B11, in assay [1], the dissociation constant (Kd) came to 9 pM, the koff was 0.00014 s⁻¹ and the kon stood at 1.6e+07 M⁻¹ s⁻¹. For the same molecule, in assay [2], the dissociation constant (Kd) was 16 pM, the koff turned out to be 9.53e-05 s⁻¹ and the kon turned out to be 5.8e+06 M⁻¹ s⁻¹.
